Experimental data as given in patent US20220127304A1.
Blank lines part the entries; values can stand above or below the binder they belong to.

Experiments:
human IgG1 (human) = assay: SPR, Biacore X-100, human IgG1 on the chip, single cycle kinetics
[1] = target: human serum-derived IgG polyclonal antibody (WAKO) (human); assay: affinity column breakthrough, scFv immobilized on HiTrap NHS-activated HP; average of Reference Examples 1-1 and 1-2
[2] = target: human serum-derived IgG polyclonal antibody (WAKO) (human); assay: affinity column breakthrough, scFv immobilized on HiTrap NHS-activated HP
[3] = target: human serum-derived IgG polyclonal antibody (WAKO) (human); assay: affinity column breakthrough, scFv immobilized on HiTrap NHS-activated HP (33.6 mg)

B1: single-chain antibody R3-26 (scFv)
scFv: QEQLVESGGGLVKPGGTLTLTCTVSGIDLSSYAMSWVRQVPGKGLEWIGIIGSGGGTAYANWAKGRFTISKTSSTTVDLKMTSLTTEDTATYFCATDYGIYGYAYGHLWGPGTLVTVTSGGGGSGGGGSGGGGSELVMTQTASPVSAAVGGTVTIKCQASQSISTALAWYQQRPGQPPKLLIYDASTLASGVSSRFKGSGSGTEFTLTISDLECADAATYYCQTYFGSDTDNAFGEGTEVEITGSAAALEHHHHHH
Kd (human IgG1 (human)): 2.1 nM
koff (human IgG1 (human)): 4.3e-05 s⁻¹
kon (human IgG1 (human)): 21000 M⁻¹ s⁻¹
[10% DBC (mg/mL) at flow rate of 1.0 mL/min]/[amount of protein immobilized on column (mg)] [1]: 0.736 (mg/mL)/mg

B2: R3-26 repCK+ori6K+VH4KVL4K (scFv)
scFv: QEQLVESGGGLVKPGGTLTLTCTVSGIDLSSYAMSWVRQVPGKGLEWIGIIGSGGGTAYANWARGRFTISRTSSTTVDLRMTSLTTEDTATYFCATDYGIYGYAYGHLWGPGTLVTVTKKKKKGGGGSGGGGSGGGGSELVMTQTASPVSAKVGGTVTINCQASQSISTALAWYQQKPGQPPRLLIYDASTLASGVSSRFSGSGSGTEFTLTISDLESADAATYYCQTYFGSDTDNAFGEGTEVEIKKKKKGSAAALEHHHHHH
Kd (human IgG1 (human)): 0.053 nM
koff (human IgG1 (human)): 1.6e-05 s⁻¹
kon (human IgG1 (human)): 300000 M⁻¹ s⁻¹

The remaining lines, values ahead:

[10% DBC (mg/mL) at flow rate of 1.0 mL/min]/[amount of protein immobilized on column (mg)] [2]: 0.625 (mg/mL)/mg
Kd (human IgG1 (human)): 1.6 nM
koff (human IgG1 (human)): 9.1e-05 s⁻¹
kon (human IgG1 (human)): 56000 M⁻¹ s⁻¹
B3: R3-26 repCK+K (scFv)
scFv: QEQLVESGGGLVTPGGTLTLTCTVSGIDLSSYAMSWVRQVPGEGLEWIGIIGSGGGTAYANWARGRFTISRTSSTTVDLRMTSLTTEDTATYFCATDYGIYGYAYGHLWGPGTLVTVTSGGGGSGGGGSGGGGSELVMTQTASPVSAAVGGTVTINCQASQSISTALAWYQQRPGQPPRLLIYDASTLASGVSSRFSGSGSGTEFTLTISDLESADAATYYCQTYFGSDTDNAFGEGTEVEITGSAAAGGGGSKIEHHHHHH

[10% DBC (mg/mL) at flow rate of 1.0 mL/min]/[amount of protein immobilized on column (mg)] [3]: 0.777 (mg/mL)/mg
Kd (human IgG1 (human)): 0.79 nM
koff (human IgG1 (human)): 6.2e-05 s⁻¹
kon (human IgG1 (human)): 79000 M⁻¹ s⁻¹
B4: R3-26 repCK+ori6K (scFv)
scFv: QEQLVESGGGLVKPGGTLTLTCTVSGIDLSSYAMSWVRQVPGKGLEWIGIIGSGGGTAYANWARGRFTISRTSSTTVDLRMTSLTTEDTATYFCATDYGIYGYAYGHLWGPGTLVTVTKGGGGSGGGGSGGGGSELVMTQTASPVSAKVGGTVTINCQASQSISTALAWYQQKPGQPPRLLIYDASTLASGVSSRFSGSGSGTEFTLTISDLESADAATYYCQTYFGSDTDNAFGEGTEVEIKGSAAALEHHHHHH
